Test system: AU-tagged PLC-γ1
Sequence (P19174 2-1290): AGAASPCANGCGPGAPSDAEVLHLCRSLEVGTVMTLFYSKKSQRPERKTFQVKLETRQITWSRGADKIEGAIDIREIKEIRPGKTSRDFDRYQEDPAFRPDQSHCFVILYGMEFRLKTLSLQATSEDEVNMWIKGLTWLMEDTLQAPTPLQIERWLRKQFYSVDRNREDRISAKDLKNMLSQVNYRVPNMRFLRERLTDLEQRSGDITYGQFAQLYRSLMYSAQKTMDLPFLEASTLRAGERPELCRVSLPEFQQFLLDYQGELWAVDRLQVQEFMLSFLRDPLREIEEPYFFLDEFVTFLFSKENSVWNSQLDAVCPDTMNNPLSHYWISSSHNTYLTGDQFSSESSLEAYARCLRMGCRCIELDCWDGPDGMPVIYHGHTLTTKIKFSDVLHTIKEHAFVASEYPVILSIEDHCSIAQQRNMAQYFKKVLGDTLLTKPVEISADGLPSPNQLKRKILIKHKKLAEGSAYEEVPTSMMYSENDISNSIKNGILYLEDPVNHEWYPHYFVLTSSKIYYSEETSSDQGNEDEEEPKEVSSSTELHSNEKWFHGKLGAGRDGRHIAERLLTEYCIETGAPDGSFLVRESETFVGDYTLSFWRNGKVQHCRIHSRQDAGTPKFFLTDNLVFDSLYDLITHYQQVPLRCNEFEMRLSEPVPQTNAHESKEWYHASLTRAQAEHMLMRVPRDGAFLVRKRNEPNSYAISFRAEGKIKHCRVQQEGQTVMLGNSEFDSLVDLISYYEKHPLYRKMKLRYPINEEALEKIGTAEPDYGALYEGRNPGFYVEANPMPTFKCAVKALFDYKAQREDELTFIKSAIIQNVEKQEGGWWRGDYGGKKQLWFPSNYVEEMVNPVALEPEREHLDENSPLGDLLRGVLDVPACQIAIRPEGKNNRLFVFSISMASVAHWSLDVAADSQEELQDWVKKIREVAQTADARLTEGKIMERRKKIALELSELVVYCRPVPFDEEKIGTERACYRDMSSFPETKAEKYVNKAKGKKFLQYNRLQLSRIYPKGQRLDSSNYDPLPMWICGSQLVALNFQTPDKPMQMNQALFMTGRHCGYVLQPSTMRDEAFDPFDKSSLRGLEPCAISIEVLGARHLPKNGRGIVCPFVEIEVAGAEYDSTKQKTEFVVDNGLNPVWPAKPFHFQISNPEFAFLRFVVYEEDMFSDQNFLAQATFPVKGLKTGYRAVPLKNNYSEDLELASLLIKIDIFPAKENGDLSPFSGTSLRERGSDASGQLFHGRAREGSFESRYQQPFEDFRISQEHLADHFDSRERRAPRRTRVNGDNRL

Chain of myc-tagged Itch (chain, as listed by the source): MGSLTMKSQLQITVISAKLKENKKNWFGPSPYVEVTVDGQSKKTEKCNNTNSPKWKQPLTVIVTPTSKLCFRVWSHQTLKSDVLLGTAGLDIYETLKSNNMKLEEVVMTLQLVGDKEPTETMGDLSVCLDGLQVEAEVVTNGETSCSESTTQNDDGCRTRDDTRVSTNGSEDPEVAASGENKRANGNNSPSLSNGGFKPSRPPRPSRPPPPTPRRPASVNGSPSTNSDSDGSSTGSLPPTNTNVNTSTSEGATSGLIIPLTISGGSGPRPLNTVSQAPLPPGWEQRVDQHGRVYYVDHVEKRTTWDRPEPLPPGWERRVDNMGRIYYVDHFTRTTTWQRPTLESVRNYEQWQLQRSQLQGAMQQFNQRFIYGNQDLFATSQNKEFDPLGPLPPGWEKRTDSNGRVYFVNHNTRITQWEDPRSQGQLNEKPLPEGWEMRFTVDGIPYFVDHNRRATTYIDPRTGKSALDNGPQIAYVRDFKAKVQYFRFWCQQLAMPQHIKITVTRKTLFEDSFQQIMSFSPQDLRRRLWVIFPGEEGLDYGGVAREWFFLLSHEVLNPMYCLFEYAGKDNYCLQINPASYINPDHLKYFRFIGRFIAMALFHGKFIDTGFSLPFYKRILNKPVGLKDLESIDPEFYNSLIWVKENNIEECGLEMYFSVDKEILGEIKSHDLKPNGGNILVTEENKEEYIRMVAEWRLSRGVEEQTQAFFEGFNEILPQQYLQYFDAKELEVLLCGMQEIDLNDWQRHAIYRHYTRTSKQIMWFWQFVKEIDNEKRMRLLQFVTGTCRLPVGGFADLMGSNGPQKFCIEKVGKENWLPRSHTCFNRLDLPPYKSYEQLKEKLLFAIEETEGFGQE

## myc-tagged Itch
  ionomycin-dependent degradation of PLC-γ1 (HEK 293 transfection, immunoblot): Itch and Nedd4 both facilitated the ionomycin-dependent degradation of PLC-γ1
